According to paper PMC7174510:

Biological target: Rac1 (African green monkey (endogenous in COS-1))

percent inhibition by 1A-116 (50 uM, 24 h) of the SRE-luciferase activity elicited by the activated GEF in COS-1 cells [%]	Binder
75	Tiam1 C1199 (aa 391-1590) (domain or fragment) LEMSTTNSESLEEAGSAHSDEQSSGTLSSPGQSDILLTAAQGTVRKAGALAVKNFLVHKKNKKVESATRRKWKHYWVSLKGCTLFFYETDGRSGIDHNSVPKHAVWVENSIVQAVPEHPKKDFVFCLSNSLGDAFLFQTTSQTELENWITAIHSACAAAVARHHHKEDTLRLLKSEIKKLEQKIDMDEKMKKMGEMQLSSVTDSKKKKTILDQIFVWEQNLEQFQMDLFRFRCYLASLQGGELPNPKRLLAFASRPTKVAMGRLGIFSVSSFHALVAARTGEIGVRRRTQAMSRSASKRRSRFSSLWGLDTTSKKKQGRPTINQVFGEGTDAVKRSLEGIFDDTVPDGKREKEVVLPSVHQHNPDCDIWVHEYFTPSWFCLPNNQPALTVVRPGDTARDTLELICKTHQLDHSAHYLRLKFLMENRVQFYIPQPEEDIYELLYKEIEICPKVTQNIHIEKSDAAADNYGFLLSSVDEDGIRRLYVNSVKETGLASKKGLKAGDEILEINNRAAGTLNSSMLKDFLSQPSLGLLVRTYPEPEGGVELLENPPHRVDGPVDLGESPLAFLTSNPGHSLSSEQGSSAETAPEEGEGPDLESSDETDHSSKSTEQVAAFCRSLHEMSPSDSSPSPQDATSPQLATTRQLSDADKLRKVICELLETERTYVKDLNCLMERYLKPLQKETFLTQDELDVLFGNLTEMVEFQVEFLKTLEDGVRLVPDLEKLEKVDQFKKVLFSLGGSFLYYADRFKLYSAFCASHTKVPKVLVKAKTDTAFKAFLDAQNPRQQHSSTLESYLIKPIQRVLKYPLLLRELFALTDAESEEHYHLDVAIKTMNKVASHINEMQKIHEEFGAVFDQLIAEQTGEKKEVADLSMGDLLLHTSVIWLNPPASLGKWKKEPELAAFVFKTAVVLVYKDGSKQKKKLVGSHRLSIYEEWDPFRFRHMIPTEALQVRALPSADAEANAVCEIVHVKSESEGRPERVFHLCCSSPESRKDFLKSVHSILRDKHRRQLLKTESLPSAQQYVPFGGKRLCALKGARPAMSRAVSAPSKSLGRRRRRLARNRFTIDSDAISASSPEKEPQQPAGGGDTDRWVEEQFDLAQYEEQDDIKETDILSDDDEFCESLKGASVDRDLQEQLQAASISQRARGRRTLDSHASRMTQLKKQAALSGINGGLESASEEVIWVRREDFAPSRKLNTE
60	oncogenic Dbl (domain or fragment) HVLNELIQTERVYVRELYTVLLGYRAEMDNPEMFDLMPPLLRNKKDILFGNMAEIYEFHNDIFLSSLENCAHAPERVGPCFLERKDDFQMYAKYCQNKPRSETIWRKYSECAFFQECQRKLKHRLRLDSYLLKPVQRITKYQLLLKELLKYSKDCEGSALLKKALDAMLDLLKSVNDSMHQIAINGYIGNLNELGKMIMQGGFSVWIGHKKGATKMKDLARFKPMQRHLFLYEKAIVFCKRRVESGEGSDRYPSYSFKHCWKMDEVGITEYVKGDNRKFEIWYGEKEEVYIVQASNVDVKMTWLKEIRNILLKQQELLTVKKRKQQDQLTERDKFQISLQQNDEKQQGAFISTEETELEHTSTVVEVCEAIASVQAEANTVWTEASQSAEISEEPAEWSSNYFYPTYDENEEENRPLMRPVSEMALLY
